The source of these data is paper PMC6534964 (Journal of the American Chemical Society, 2018).

The labels stand for the following.
B3: S100A9, subunit of native CP (natural protein, human, UniProt P06702 2-114, looked up)
chain: TCKMSQLERNIETIINTFHQYSVKLGHPDTLNQGEFKELVRKDLQNFLKKENKNEKVIEHIMEDLDTNADKQLSFEEFIMLMARLTWASHEKMHEGDEGPGHHHKPGLGEGTP

Data set [1] concerns the molecule itself. Nature of the data set: SEC. On the technique in general: Size exclusion chromatography separates by hydrodynamic size, large species first.
For data set [2], the target named is B3. Kind of data set: cross-linking.
Data set [3] deals with the molecule itself. Nature of the data set: cross-linking.
The target in data set [4] is T1, S100A9(C3S), subunit of CP-Ser (human, UniProt P06702 2-114, C3S).
T1 sequence (looked up): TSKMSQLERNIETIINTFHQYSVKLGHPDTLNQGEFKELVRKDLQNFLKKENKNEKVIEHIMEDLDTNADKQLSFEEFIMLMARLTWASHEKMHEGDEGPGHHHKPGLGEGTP
Nature of the data set: anion exchange chromatography.

B1: CP-Ser, S100A8(C42S)/S100A9(C3S) heterodimer of human calprotectin (complex)
chain 1: MLTELEKALNSIIDVYHKYSLIKGNFHAVYRDDLKKLLETESPQYIRKKGADVWFKELDINTDGAVNFQEFLILVIKMGVAAHKKSHEESHKE
chain 2: TSKMSQLERNIETIINTFHQYSVKLGHPDTLNQGEFKELVRKDLQNFLKKENKNEKVIEHIMEDLDTNADKQLSFEEFIMLMARLTWASHEKMHEGDEGPGHHHKPGLGEGTP
Take B1: in data set [1], the binding result is on record as “binds”.

B2: S100A8, subunit of native CP (natural protein, human, UniProt P05109 1-93, looked up)
chain: MLTELEKALNSIIDVYHKYSLIKGNFHAVYRDDLKKLLETECPQYIRKKGADVWFKELDINTDGAVNFQEFLILVIKMGVAAHKKSHEESHKE
On to B2, for which the binding result in data set [2] is given as “binds”.
For B3, the binding result in data set [3] is given as “binds”.

B4: CP-Ser M81A variant, S100A8(C42S)/S100A9(C3S)(M81A) (complex, human)
chain 1: MLTELEKALNSIIDVYHKYSLIKGNFHAVYRDDLKKLLETESPQYIRKKGADVWFKELDINTDGAVNFQEFLILVIKMGVAAHKKSHEESHKE
chain 2: TSKMSQLERNIETIINTFHQYSVKLGHPDTLNQGEFKELVRKDLQNFLKKENKNEKVIEHIMEDLDTNADKQLSFEEFIALMARLTWASHEKMHEGDEGPGHHHKPGLGEGTP
For B4, the binding result in data set [1] is recorded as “binds”.

B5: S100A8(C42S), subunit of CP-Ser (natural protein, human, UniProt P05109 1-93, looked up)
chain: MLTELEKALNSIIDVYHKYSLIKGNFHAVYRDDLKKLLETESPQYIRKKGADVWFKELDINTDGAVNFQEFLILVIKMGVAAHKKSHEESHKE
With B5, in data set [4], the binding result is given as “binds”.
